Experimental data reported in paper PMC3627603 (Nucleic Acids Research, 2013).

T1: H6-Mcm10 full length (FL), recombinant (human, UniProt Q7L590-2 1-874)
T1 sequence (looked up): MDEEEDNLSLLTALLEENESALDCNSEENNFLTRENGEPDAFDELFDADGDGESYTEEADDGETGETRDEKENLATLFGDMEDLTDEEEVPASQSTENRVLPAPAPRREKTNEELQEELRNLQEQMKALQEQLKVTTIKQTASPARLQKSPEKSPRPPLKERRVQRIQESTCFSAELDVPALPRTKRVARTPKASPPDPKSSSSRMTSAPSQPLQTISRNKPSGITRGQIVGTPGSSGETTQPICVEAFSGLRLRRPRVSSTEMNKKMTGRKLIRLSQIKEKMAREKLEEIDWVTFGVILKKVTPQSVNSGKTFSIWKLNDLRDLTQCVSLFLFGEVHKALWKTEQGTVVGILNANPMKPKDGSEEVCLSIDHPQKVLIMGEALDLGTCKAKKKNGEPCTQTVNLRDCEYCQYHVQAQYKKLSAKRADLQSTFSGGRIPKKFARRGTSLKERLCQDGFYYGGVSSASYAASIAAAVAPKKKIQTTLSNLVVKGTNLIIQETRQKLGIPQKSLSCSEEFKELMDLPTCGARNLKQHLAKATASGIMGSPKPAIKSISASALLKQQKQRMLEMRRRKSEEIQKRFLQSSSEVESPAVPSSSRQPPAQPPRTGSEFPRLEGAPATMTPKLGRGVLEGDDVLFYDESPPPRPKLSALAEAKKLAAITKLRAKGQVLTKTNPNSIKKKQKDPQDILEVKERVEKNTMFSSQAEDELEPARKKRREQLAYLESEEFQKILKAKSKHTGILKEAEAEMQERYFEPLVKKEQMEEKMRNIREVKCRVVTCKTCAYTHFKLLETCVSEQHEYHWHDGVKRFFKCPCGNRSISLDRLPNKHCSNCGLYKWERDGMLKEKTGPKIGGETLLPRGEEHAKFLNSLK

B1: GST-SIRT1 (enzyme, human, UniProt Q96EB6 1-747, looked up)
chain: MADEAALALQPGGSPSAAGADREAASSPAGEPLRKRPRRDGPGLERSPGEPGGAAPEREVPAAARGCPGAAAAALWREAEAEAAAAGGEQEAQATAAAGEGDNGPGLQGPSREPPLADNLYDEDDDDEGEEEEEAAAAAIGYRDNLLFGDEIITNGFHSCESDEEDRASHASSSDWTPRPRIGPYTFVQQHLMIGTDPRTILKDLLPETIPPPELDDMTLWQIVINILSEPPKRKKRKDINTIEDAVKLLQECKKIIVLTGAGVSVSCGIPDFRSRDGIYARLAVDFPDLPDPQAMFDIEYFRKDPRPFFKFAKEIYPGQFQPSLCHKFIALSDKEGKLLRNYTQNIDTLEQVAGIQRIIQCHGSFATASCLICKYKVDCEAVRGDIFNQVVPRCPRCPADEPLAIMKPEIVFFGENLPEQFHRAMKYDKDEVDLLIVIGSSLKVRPVALIPSSIPHEVPQILINREPLPHLHFDVELLGDCDVIINELCHRLGGEYAKLCCNPVKLSEITEKPPRTQKELAYLSELPPTPLHVSEDSSSPERTSPPDSSVIVTLLDQAAKSNDDLDVSESKGCMEEKPQEVQTSRNVESIAEQMENPDLKNVGSSTGEKNERTSVAGTVRKCWPNRVAKEQISRRLDGNQYLFLPPNRYIFHGAEVYSDSEDDVLSSSSCGSNSDSGTCQSPSLEEPMEDESEIEEFYNGLEDEPDVPERAGGAGFGTDGDDQEAINEAISVKQEVTDMNYPSNKS
B2: His-tagged Mcm10 C-terminal domain (CTD, aa 630-874) (domain or fragment, human, UniProt Q7L590-2 630-874, looked up)
chain: GVLEGDDVLFYDESPPPRPKLSALAEAKKLAAITKLRAKGQVLTKTNPNSIKKKQKDPQDILEVKERVEKNTMFSSQAEDELEPARKKRREQLAYLESEEFQKILKAKSKHTGILKEAEAEMQERYFEPLVKKEQMEEKMRNIREVKCRVVTCKTCAYTHFKLLETCVSEQHEYHWHDGVKRFFKCPCGNRSISLDRLPNKHCSNCGLYKWERDGMLKEKTGPKIGGETLLPRGEEHAKFLNSLK

Legend:
[1] = target: T1, H6-Mcm10 full length (FL), recombinant; experiment: pull-down
GST-SIRT1 = target: B1; experiment: pull-down

Row | binding result [1] | binding result (GST-SIRT1) | Binder
1 | binds | – | B1
2 | – | binds | B2
